{"source": "patent US20090239800A1", "about": "(GEORGIA TECH RESEARCH CORPORARION, published 2009)", "key": {"[1]": {"biological_target": "ClC-1", "experiment": "cell-based or functional assay"}, "[2]": {"biological_target": "T1, rabbit ClC-2 (rabbit, UniProt P51789 1-898)", "T1 sequence (looked up)": "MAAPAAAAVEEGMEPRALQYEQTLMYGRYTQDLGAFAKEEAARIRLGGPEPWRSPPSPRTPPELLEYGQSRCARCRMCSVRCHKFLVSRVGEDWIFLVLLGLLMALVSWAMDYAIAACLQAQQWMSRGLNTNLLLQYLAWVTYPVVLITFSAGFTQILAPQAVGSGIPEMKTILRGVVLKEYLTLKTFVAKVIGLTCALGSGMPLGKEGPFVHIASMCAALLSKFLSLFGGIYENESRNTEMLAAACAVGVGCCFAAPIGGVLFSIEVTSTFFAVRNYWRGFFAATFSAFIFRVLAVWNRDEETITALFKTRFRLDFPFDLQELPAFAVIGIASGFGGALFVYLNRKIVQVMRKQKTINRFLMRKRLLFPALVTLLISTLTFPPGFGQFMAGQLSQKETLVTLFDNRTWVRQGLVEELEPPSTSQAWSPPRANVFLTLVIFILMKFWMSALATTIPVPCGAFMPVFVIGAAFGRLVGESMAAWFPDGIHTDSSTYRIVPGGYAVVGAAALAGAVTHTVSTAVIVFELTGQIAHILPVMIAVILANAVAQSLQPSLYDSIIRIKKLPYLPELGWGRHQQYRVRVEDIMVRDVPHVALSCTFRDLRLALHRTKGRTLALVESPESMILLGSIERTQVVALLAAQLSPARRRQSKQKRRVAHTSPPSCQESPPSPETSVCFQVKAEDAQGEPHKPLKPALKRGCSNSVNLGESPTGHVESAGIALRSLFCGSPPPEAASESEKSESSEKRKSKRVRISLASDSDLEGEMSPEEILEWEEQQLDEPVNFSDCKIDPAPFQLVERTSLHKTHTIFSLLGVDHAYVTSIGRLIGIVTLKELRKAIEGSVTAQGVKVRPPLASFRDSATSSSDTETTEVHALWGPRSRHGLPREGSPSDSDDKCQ", "experiment": "cell-based or functional assay"}, "[3]": {"biological_target": "T1, rabbit ClC-2", "experiment": "dose-response of inhibition of ClC-2 window current, inside-out multi-channel patches, synthetic toxin backfilled in the pipette, VM=-100 mV (FIG. 3B)"}}, "note": "No end group written: not given here."}
{"binder": "VSCEDCPDHCSTQKARAKCDNDKCVCEPI (disulfide (positions not given here), also called Leiuropeptide II; LPII)", "note": "[GaTx2]", "values": [{"measurement": "ClC-1 tail currents at VM=-120 mV from +60 mV, 10 nM GaTx2 against after washout of toxin", "setting": "[1]", "value": 1.04, "unit": "fold"}, {"measurement": "latency to first opening upon stepping from VM 0 to -100 mV, 20 pM GaTx2", "setting": "[2]", "value": 7.67, "unit": "fold increase"}, {"measurement": "Kd", "setting": "[3]", "value": 0.012, "unit": "nM"}]}
